From PMC11892650 (Proceedings of the National Academy of Sciences of the …, 2025)
Values joined by “and” are separate entries in the source; they are usually repeats but may differ in a detail not shown here. Equal entries are not always repeated.

How the values were obtained:
[1] = biological target: c-Jun N-terminal kinase 1 (JNK1), inactive, unphosphorylated form (UniProt P45983); test: native MS
[2] = biological target: RPLL mutant of JIP1_(116–266) (R160E, P161A, L164A, L166A) (UniProt Q9UQF2); test: NMR 15N CPMG relaxation dispersion
[3] = biological target: T1, c-Jun N-terminal kinase 1 (JNK1), inactive, unphosphorylated form (UniProt P45983 5-364); test: native MS
T1 sequence (P45983 5-364): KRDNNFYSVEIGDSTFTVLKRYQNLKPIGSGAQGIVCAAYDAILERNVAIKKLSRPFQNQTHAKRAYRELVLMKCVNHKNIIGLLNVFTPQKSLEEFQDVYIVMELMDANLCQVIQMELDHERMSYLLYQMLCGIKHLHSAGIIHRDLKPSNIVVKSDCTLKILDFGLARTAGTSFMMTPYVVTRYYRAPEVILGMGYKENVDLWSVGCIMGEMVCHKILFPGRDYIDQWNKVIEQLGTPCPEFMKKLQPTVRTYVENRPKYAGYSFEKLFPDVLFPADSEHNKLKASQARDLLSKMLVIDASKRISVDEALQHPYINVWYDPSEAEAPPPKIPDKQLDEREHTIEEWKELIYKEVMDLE

[4] = biological target: T1, c-Jun N-terminal kinase 1 (JNK1), …; test: ITC

c-Jun N-terminal kinase 1 (JNK1), inactive, unphosphorylated form (UniProt P45983), sequence (P45983 5-364): as above

Molecule | stoichiometry N [3] | Kd [4] | dH [4] | other results
JIP1_(1–145) (from UniProt Q9UQF2 1-145) (domain or fragment) | – | – | – | stoichiometry N [1]: 1
c-Jun N-terminal kinase 1 (JNK1), inactive, unphosphorylated form (from UniProt P45983 5-364) (enzyme) | – | – | – | Kd [2]: 2200 µM; bound-state population pB [2]: 1.6%; exchange rate constant kex [2]: 1100 s⁻¹; koff [2]: 1080 s⁻¹; kon [2]: 480000 M⁻¹ s⁻¹
IL mutant of JIP1_(116–266) (I211A, L213A) (domain or fragment, UniProt Q9UQF2 116-266, looked up) ERAARRPGAGPPKAESGQEPASRGQGQSQGQSQGPGSGDTYRPKRPTTLNLFPQVPRSQDTLNNNSLGKKHSWQDRVSRSSSPLKTGEQTPPHEHACASDELPPQSGPAPTTDRGTSTDSPCRRSTATQMAPPGGPPAAPPGGRGHSHRDR | 1 | 0.082 µM | -10.7 kcal/mol | –

Second part, led by results:

stoichiometry N [3] | Kd [4] | dH [4] | Molecule | other results
1 and 2 JNK1 per JIP1 | – | – | JIP1_(1–266) (domain or fragment, UniProt Q9UQF2 1-266, looked up) MAERESGGLGGGAASPPAASPFLGLHIASPPNFRLTHDISLEEFEDEDLSEITDECGISLQCKDTLSLRPPRAGLLSAGGGGAGSRLQAEMLQMDLIDATGDTPGAEDDEEDDDEERAARRPGAGPPKAESGQEPASRGQGQSQGQSQGPGSGDTYRPKRPTTLNLFPQVPRSQDTLNNNSLGKKHSWQDRVSRSSSPLKTGEQTPPHEHICLSDELPPQSGPAPTTDRGTSTDSPCRRSTATQMAPPGGPPAAPPGGRGHSHRDR | –
1 | 0.081 µM | -11.6 kcal/mol | JIP1_(116–266), the shortest construct comprising the D-motif (domain or fragment, UniProt Q9UQF2 116-266, looked up) ERAARRPGAGPPKAESGQEPASRGQGQSQGQSQGPGSGDTYRPKRPTTLNLFPQVPRSQDTLNNNSLGKKHSWQDRVSRSSSPLKTGEQTPPHEHICLSDELPPQSGPAPTTDRGTSTDSPCRRSTATQMAPPGGPPAAPPGGRGHSHRDR | ΔΔH (binding enthalpy against the D-motif peptide) [4]: 4 kcal/mol
– | 0.217 µM | – | RPKRPTTLNLF [peptide corresponding to the D-motif of JIP1 (157RPKRPTTLNLF167)] | –
